The results in this text go back to patent publication US20160311878A1 (SAMSUNG ELECTRONICS, published 2016).

For this assay, the target named is T1, full-length HDM2 (NP_002383.2) (human, UniProt Q00987-11 1-497, limits assumed).
T1 construct: it was coated on the ELISA plate at 20 ug/ml; also called full-length MDM2
In words: ELISA; full-length HDM2 coated on plate, GST fusion at 0-5.5 uM, anti-GST-HRP detection (FIG. 4).

T1 sequence (Q00987 other isoform, or with tags, fused parts or gaps limits assumed): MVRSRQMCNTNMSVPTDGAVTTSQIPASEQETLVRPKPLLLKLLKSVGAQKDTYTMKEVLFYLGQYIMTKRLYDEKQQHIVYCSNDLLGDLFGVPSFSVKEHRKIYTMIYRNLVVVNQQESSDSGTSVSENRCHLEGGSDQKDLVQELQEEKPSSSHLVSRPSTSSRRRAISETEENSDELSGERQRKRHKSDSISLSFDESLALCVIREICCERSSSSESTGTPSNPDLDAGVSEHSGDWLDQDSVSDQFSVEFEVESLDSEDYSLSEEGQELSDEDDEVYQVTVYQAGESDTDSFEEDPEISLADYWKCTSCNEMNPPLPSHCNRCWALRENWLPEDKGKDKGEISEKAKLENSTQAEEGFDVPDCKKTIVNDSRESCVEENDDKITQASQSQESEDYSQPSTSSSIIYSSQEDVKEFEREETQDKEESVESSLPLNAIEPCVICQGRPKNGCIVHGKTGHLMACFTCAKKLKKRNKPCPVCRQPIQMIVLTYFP
Protocol: The well was incubated overnight at 4° C. Thereafter, bindings between other proteins were blocked with 300 ul of 3% skim milk w/PBS-T (at room temperature for 3 hours).
One hour after, the plate was washed with 300 uL of PBS-T, and treated with 100 uL of HRP conjugated-anti-GST antibody (Abcam, 1:2000). After the reaction at room temperature for one hour, the plate was treated with TMB substrate (Pierce, 100 uL) and left for 5 minute until coloring reaction occur, and then, treated with stop solution (Pierce, 100 uL). Thereafter, absorbance at 450 nm was measured using microwell reader (Molecular Device, 340PC384).

B1: GST-M25 (modified three-helix bundle protein M25, an a3D variant, fused to GST) (designed binder)
chain: MGSWFEFAWRLLEIKTRLQALGGSEAELAAFEKEIAAFESELQAYKGKGNPEVEALRFEAYWIRLELQAYRHN
notes: Tested as a GST fusion in ELISA and detected with an HRP-conjugated anti-GST antibody; GST is placed at the N-terminus from the name GST-M25 and the pGEX vector; not shown: GST carrier (from the GST cds of pGEX-4T3, GE Healthcare) and the vector junction between GST and M25
As to B1, the binding result is on record as “binds”.

B2: GST-M11 (modified three-helix bundle protein M11, an a3D variant, fused to GST) (designed binder)
chain: MGSWAEFSQRLFAIYWRLLALGGSEAELAAFEKEIAAFESELQAYKGKGNPEVEALRKEAAAIRDELQAYRHN
notes: Tested as a GST fusion in ELISA and detected with an HRP-conjugated anti-GST antibody; GST is placed at the N-terminus from the name GST-M11 and the pGEX vector; not shown: GST carrier (from the GST cds of pGEX-4T3, GE Healthcare) and the vector junction between GST and M11
Turning to B2, the binding result is recorded as “binds”.
